From publication PMC13544220, “Glycemic and bodyweight effects of GIPR coding variation reflect differences in surface expression and intrinsic functional impairment” (Science Advances, 2026)

What was measured:
Assay type in all cases: cell-based, human
[1] = tested on: wild-type and variant SNAP-GIPR; assay: Surface SNAP-GIPR expression (SNAP-tag labelling) in AD293 cells; conditions: for AD293 Surface: Fig S3E, mean; for Surface SNAP-GIPR expression: sheet Fig 1C;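 for all read-outs here: scaled to the experimental average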
Method in brief: (§1)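 Surface GIPR is quantified from wide-field images after labelling intact transfected cells with a membrane-impermeant SNAP probe at 500 nM for 10 min at room temperature. Specific signal, corrected for nontransfected cells, is normalized to the experiment-wide average or to wild-type.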

[2] = tested on: wild-type and variant SNAP-GIPR; assay: Surface SNAP-GIPR expression (SNAP-tag labelling) in INS-1 cells; conditions: Fig 4G; Mean
Method in brief: as §1

[3] = tested on: wild-type and variant SNAP-GIPR; assay: Single-concentration GIP cAMP response by HTRF in AD293 cells; conditions: Fig S3F, HTRF, mean;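 note: ratio to experiment-wide average response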
Protocol: (§2) All variants were tested in parallel on each occasion to control for transfection efficiency differences between experiments.

[4] = tested on: wild-type and variant SNAP-GIPR; assay: Single-concentration GIP cAMP response by HTRF in INS-1 cells; conditions: Fig S3E, mean
Protocol: as §2

[5] = tested on: wild-type and variant SNAP-GIPR; assay: cADDis cAMP imaging in AD293 cells, ensemble, expression-matched and per decile; conditions: Fig S3F, cADDis, mean;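 note: Ensemble cells as % of IBMX/FSK response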
Method in brief: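 Variants and wild type ran in parallel in transfected AD293 cells carrying cADDis. Single-cell sensor intensity, with nonresponders to IBMX/FSK removed, was paired with SNAP-Surface 647 labeling to allow expression-matched analysis.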

[6] = tested on: wild-type and variant SNAP-GIPR; assay: Constitutive and agonist-mediated internalization, reversible SNAP-tag labelling, AD293 cells; set-up: key to Internalisation, Vehicle / Internalisation, +GIP / Internalisation, GIP-only: % internalization: residual fluorescence after Mesna vs pre-Mesna; Surface expression: unit not given here; conditions: Mean
Method in brief: (§3)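 Surface SNAP-GIPR signal removable by Mesna was tracked by imaging before and 10 min after treatment in pH 8.6 TNE buffer. Internalization is the Mesna-resistant share of specific fluorescence.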

[7] = tested on: wild-type and variant SNAP-GIPR; assay: Constitutive and agonist-mediated internalization, reversible SNAP-tag labelling, INS-1 cells; set-up: key to Internalisation, GIP-only / Internalisation, Vehicle / Internalisation, +GIP: % internalization: residual fluorescence after Mesna vs pre-Mesna; conditions: Mean
Method in brief: as §3

B1: D66G (protein, UniProt P48546 22-466, looked up, variant D66G)
Gastric inhibitory …: RAETGSKGQTAGELYQRWERYRRECQETLAAAEPPSGLACNGSFGMYVCWDYAAPNATARASCPWYLPWHHHVAAGFVLRQCGSDGQWGLWRDHTQCENPEKNEAFLDQRLILERLQVMYTVGYSLSLATLLLALLILSLFRRLHCTRNYIHINLFTSFMLRAAAILSRDRLLPRPGPYLGDQALALWNQALAACRTAQIVTQYCVGANYTWLLVEGVYLHSLLVLVGGSEEGHFRYYLLLGWGAPALFVIPWVIVRYLYENTQCWERNEVKAIWWIIRTPILMTILINFLIFIRILGILLSKLRTRQMRCRDYRLRLARSTLTLVPLLGVHEVVFAPVTEEQARGALRFAKLGFEIFLSSFQGFLVSVLYCFINKEVQSEIRRGWHHCRLRRSLGEEQRQLPERAFRALPSGSGPGEVPTSRGLSSGTLPGPGNEASRELESYC
AD293 Surface ([1]; column repeated, paired with cAMP 100 nM): 0.2845 | AD293 Surface ([1]; paired with cAMP 100 pM): 0.2845 | Surface SNAP-GIPR expression ([1]; replicate 1): 0.2625 | Surface SNAP-GIPR expression ([1]; replicate 2): 0.397 | Surface SNAP-GIPR expression ([1]; replicate 3): 0.1659 | Surface SNAP-GIPR expression ([1]; replicate 4): 0.02117 | Surface SNAP-GIPR expression ([1]; replicate 5): 0.3372 | Surface SNAP-GIPR expression ([1]; replicate 6): 0.161 | Surface SNAP-GIPR expression ([1]; replicate 7): 0.3578 | Surface SNAP-GIPR expression ([1]; replicate 8): 0.377 | Surface SNAP-GIPR expression ([1]; replicate 9): 0.35 | Surface SNAP-GIPR expression ([1]; replicate 10): 0.5096 | Surface SNAP-GIPR expression ([1]; replicate 11): 0.4534 | Surface SNAP-GIPR expression ([1]; replicate 12): 0.5149 | Surface SNAP-GIPR expression ([1]; replicate 13): 0.197 | Surface SNAP-GIPR expression ([1]; replicate 14): 0.2293 | Surface SNAP-GIPR expression ([1]; replicate 15): 0.3425 | Surface SNAP-GIPR expression ([1]; replicate 16): 0.4052 | Surface SNAP-GIPR expression ([1]; replicate 17): 0.4309 | Surface SNAP-GIPR expression ([1]; replicate 18): 0.3854 | Surface SNAP-GIPR expression ([1]; replicate 19): 0.4111 | Surface SNAP-GIPR expression ([1]; replicate 20): 0.3991 | Surface SNAP-GIPR expression ([1]; replicate 21): 0.5534 | Surface SNAP-GIPR expression ([1]; replicate 22): 0.4128 | Surface SNAP-GIPR expression ([1]; replicate 23): 0.3708 | Surface SNAP-GIPR expression ([1]; replicate 24): 0.3827 | Surface SNAP-GIPR expression ([1]; replicate 25): 0.2399 | Surface SNAP-GIPR expression ([1]; replicate 26): 0.2568 | Surface SNAP-GIPR expression ([1]; replicate 27): 0.1279 | Surface SNAP-GIPR expression ([1]; replicate 28): 0.1278 | Surface SNAP-GIPR expression ([1]; replicate 29): 0.1867 | Surface SNAP-GIPR expression ([1]; replicate 30): 0.2491 | Surface SNAP-GIPR expression ([1]; replicate 31): 0.2077 | Surface SNAP-GIPR expression ([1]; replicate 32): 0.1171 | Surface SNAP-GIPR expression ([1]; replicate 33): 0.1153 | Surface SNAP-GIPR expression ([1]; replicate 34): 0.2022 | Surface SNAP-GIPR expression ([1]; replicate 35): 0.2952 | Surface SNAP-GIPR expression ([1]; replicate 36): 0.2071 | Surface SNAP-GIPR expression ([1]; replicate 37): 0.2146 | Surface SNAP-GIPR expression ([1]; replicate 38): 0.1357 | Surface SNAP-GIPR expression ([1]; replicate 39): 0.1562 | Surface SNAP-GIPR expression ([1]; replicate 40): 0.1831 | Surface SNAP-GIPR expression ([1]; replicate 41): 0.2136 | Surface expression [2]: 0.1735 | AD293 100 pM HTRF ([3]; AD293, 100 pM): 0.1227 | AD293 100 nM HTRF ([3]; AD293, 100 nM): 0.328 | INS-1 cAMP (100 nM) [4]: -0.2661 | AD293 100 pM cADDis ([5]; AD293, 100 pM): -0.704 | AD293 100 nM cADDis ([5]; AD293, 100 nM): 4.118 | +GIP internalisation (100 nM) ([6]; Fig 4E, GIP 100 nM): 0.106 | GIP-specific internalisation (100 nM) ([6]; Fig 4E, GIP 100 nM): -0.001031 | Constitutive internalisation (100 nM) ([6]; Fig 4E): 0.1071 | Surface expression ([6]; Fig 4E): 0.1742 | Internalisation, +GIP ([6]; Fig S4C, AD293): 61.627 | Internalisation, GIP-only ([6]; Fig S4C, AD293): -0.8775 | Internalisation, Vehicle ([6]; Fig S4C, AD293): 62.5045 | +GIP internalisation (100 nM) ([7]; Fig 4G, GIP 100 nM): 0.08951 | GIP-specific internalisation (100 nM) ([7]; Fig 4G, GIP 100 nM): -0.01151 | Constitutive internalisation (100 nM) ([7]; Fig 4G): 0.101 | Internalisation, +GIP ([7]; Fig S4C, INS-1): 50.62 | Internalisation, GIP-only ([7]; Fig S4C, INS-1): -7.618 | Internalisation, Vehicle ([7]; Fig S4C, INS-1): 58.2383
